The source of these data is patent US20120107267A1 (Novo Nordisk, published 2012).

The assay deals with T1, His6-tagged hIL-21Rα extracellular domain (human, UniProt Q9HBE5 20-232).
T1 construct: extracellular domain; also called His6-tagged receptor EC domain; hIL-21Rα chain; not shown: His6 tag
In words: ALPHAScreen competition against biotinylated hIL-21 HA. Background: In Alpha technology, singlet oxygen from a donor bead excites a nearby acceptor bead.

T1 sequence (Q9HBE5 20-232): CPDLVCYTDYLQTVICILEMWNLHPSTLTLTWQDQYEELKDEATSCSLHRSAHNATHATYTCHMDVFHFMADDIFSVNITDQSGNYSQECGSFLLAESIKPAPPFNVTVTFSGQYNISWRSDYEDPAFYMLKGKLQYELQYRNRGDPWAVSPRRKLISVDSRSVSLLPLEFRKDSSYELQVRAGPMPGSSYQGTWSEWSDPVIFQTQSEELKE

B1: hIL-21 HA triple mutant [Q116D, H120D, L123D] (ligand)
chain: QGQDRHMIRMRQLIDIVDQLKNYVNDLVPEFLPAPEDVETNCEWSAFSCFQKAQLKSANTGNNERIINVSIKKLKRKPPSTNAGRRQKHRLTCPSCDSYEKKPPKEFLERFKSLLDKMIDQHDSSRTHGSEDSYPYDVPDYA
notes: Made by site-directed mutagenesis of the pcDNA3.1(+)/hIL-21HA plasmid and expressed in HEK293 cells
Consider B1, for which the binding result was “binds”.
